Laboratory results: patent US20070149456A1, “Epithelial sodium channel inhibiting agents and uses therefor” (University of Pittsburgh, priority 2005, published 2007)

Biological target: T1, mouse ENaC (Mus musculus, UniProt Q61180+Q9WU38+Q9WU39, DEL206-231)
T1 construct: expressed in transfected cells; host or cells: Xenopus laevis oocytes (cRNA injection)
T1 sequence (Q61180 with tags, fused parts or gaps DEL206-231): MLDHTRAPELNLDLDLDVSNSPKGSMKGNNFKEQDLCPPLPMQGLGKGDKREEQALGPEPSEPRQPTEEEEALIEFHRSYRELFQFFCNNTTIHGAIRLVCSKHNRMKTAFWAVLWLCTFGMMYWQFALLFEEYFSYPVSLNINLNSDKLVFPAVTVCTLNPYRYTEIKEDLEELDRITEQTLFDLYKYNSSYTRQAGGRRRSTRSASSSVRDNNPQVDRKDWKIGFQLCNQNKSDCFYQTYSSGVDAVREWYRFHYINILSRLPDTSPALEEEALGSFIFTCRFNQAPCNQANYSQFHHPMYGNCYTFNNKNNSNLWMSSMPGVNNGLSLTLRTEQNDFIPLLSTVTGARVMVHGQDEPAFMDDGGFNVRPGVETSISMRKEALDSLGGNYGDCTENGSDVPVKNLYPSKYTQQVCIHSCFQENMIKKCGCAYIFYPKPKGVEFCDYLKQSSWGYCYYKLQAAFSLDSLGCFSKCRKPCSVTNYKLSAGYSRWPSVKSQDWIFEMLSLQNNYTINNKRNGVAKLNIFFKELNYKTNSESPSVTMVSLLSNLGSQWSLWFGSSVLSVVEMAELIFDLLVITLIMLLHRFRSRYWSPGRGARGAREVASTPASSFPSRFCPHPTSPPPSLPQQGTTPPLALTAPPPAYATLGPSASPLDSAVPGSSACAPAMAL
T1 sequence (Q9WU38 1-638): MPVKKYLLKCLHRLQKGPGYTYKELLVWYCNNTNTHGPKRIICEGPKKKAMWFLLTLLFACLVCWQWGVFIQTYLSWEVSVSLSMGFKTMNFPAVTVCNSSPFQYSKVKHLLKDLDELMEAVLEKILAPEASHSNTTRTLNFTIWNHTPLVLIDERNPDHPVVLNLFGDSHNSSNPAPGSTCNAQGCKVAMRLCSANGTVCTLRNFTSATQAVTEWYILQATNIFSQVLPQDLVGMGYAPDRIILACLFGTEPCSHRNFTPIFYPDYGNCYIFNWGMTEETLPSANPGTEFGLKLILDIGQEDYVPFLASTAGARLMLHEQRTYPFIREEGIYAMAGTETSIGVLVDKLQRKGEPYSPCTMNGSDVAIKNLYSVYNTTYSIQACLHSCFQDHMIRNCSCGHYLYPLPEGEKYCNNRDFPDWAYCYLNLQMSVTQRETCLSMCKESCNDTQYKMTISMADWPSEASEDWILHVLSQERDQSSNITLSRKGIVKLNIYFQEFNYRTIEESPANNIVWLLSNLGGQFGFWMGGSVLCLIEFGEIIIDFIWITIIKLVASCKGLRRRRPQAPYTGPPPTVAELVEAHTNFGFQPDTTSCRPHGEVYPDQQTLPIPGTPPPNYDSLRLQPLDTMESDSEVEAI
T1 sequence (Q9WU39 1-655): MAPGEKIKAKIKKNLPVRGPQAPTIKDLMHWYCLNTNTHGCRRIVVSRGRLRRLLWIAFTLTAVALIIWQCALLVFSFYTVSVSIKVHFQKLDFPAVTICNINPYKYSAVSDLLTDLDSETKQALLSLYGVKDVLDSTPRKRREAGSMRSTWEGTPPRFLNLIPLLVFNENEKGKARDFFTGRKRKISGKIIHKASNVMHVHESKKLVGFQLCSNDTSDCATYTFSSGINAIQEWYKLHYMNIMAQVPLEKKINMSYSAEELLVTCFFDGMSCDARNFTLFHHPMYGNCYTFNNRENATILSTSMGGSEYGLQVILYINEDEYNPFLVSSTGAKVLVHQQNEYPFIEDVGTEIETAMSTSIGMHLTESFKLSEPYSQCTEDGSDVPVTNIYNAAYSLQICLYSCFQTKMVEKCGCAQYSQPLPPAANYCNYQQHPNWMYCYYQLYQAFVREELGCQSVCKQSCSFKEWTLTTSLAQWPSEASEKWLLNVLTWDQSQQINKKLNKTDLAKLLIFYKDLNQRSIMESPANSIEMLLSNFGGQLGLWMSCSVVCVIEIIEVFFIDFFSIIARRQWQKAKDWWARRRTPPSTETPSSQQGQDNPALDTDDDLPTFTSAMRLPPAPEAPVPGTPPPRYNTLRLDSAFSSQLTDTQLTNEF
Assay: Two-electrode voltage clamp, amiloride-sensitive whole cell Na+ current in Xenopus oocytes expressing wild-type αβγ ENaC
Assay type: cell-based
Conditions: peptide 10 μM (FIG. 3B)
From the text: Oocyte Expression—cRNAs for α, β, γ mouse ENaC (wild-type and mutant) subunits and mouse prostasin were synthesized with T3 or T7 m-Message mMachineTM (Ambion, Austin, Tex.). Subunits carrying furin cleavage consensus site mutations and the corresponding wild-type subunits have amino-terminal HA and carboxyl-terminal V5 tags (Hughey, R. P., Bruns, J. B., Kinlough, C. L., Harkleroad, K. L., Tong, Q., Carattino, M. D., Johnson, J. P., Stockand, J. D., and Kleyman, T. R. (2004) J. Biol. Chem. 279, 18111-18114 18). Stage V-VI Xenopus laevis oocytes were pretreated with 1.5 mg/ml of type IV collagenase and injected with 0.5-2 ng of cRNA/subunit. Injected oocytes were maintained as previously reported (Carattino, M. D., Hill, W. G., and Kleyman, T. R. (2003), Arachidonic Acid Regulates Surface Expression of Epithelial Sodium Channels, J Biol. Chem. 278, 36202-36213 29).
Two-electrode Voltage Clamp—Two-electrode voltage clamp (TEV) was performed as previously described (Carattino, M. D., Hill, W. G., and Kleyman, T. R. (2003) J Biol. Chem. 278, 36202-36213 29). The extracellular solution (TEV solution) was (in mM): 110 NaCl, 2 KCl, 1.54 CaCl2, 10 HEPES, pH 7.4, or otherwise as indicated. […] Experiments with oocytes co-expressing ENaC and prostasin and the corresponding controls were performed in the presence of aprotinin (1 μM) to impede any potential degradation of α-26 by prostasin.
Data and Statistical Analyses—and mean time of inhibition are expressed as the mean with a 95% confidence interval (CI); otherwise, data were expressed as the mean ±S.E. (n), where “n” equals the number of independent experiments analyzed. IC50 was estimated from normalized currents plotted as a function of the peptide concentration fitted, as shown in Equation 1 y=t/(1+10^(logX−log/C50)) (Eq. 1) where y is the response variable, X is the concentration of peptide, and IC50 is the concentration of peptide that provokes a response half way between the baseline (t) and maximum response. […] Results

Sequence	block of ENaC currents by related peptides
DLEGALPHPLQELETPPPPNPAESAE (Ac-DLEGALPHPLQELETPPPPNPAESAE-NH2) [R/E]	significant reduction in the block
DLRGALAHALQRLRTAAAANAARSAR (Ac-DLRGALAHALQRLRTAAAANAARSAR-NH2) [P/A]	significant reduction in the block
